Here are results for one protein from FireProtDB (doi:10.1007/s10930-006-9055-y).

One may read the Tm as the temperature at which the thermal transition is half complete.

For this series the following is noted: Weissella confusa, Thermal, reversible: No, whole UniProt chain shown.
Where [1] appears, read: pH 6, DSC, Natrium phosphate Imidazol 50 mM 250 mM, NaCl 300 mM.
The mark [2] stands for this setting: pH 7, DSC, Natrium phosphate Imidazol 50 mM 250 mM, NaCl 300 mM.
The mark [3] stands for this setting: pH 8, DSC, Natrium phosphate Imidazol 50 mM 250 mM, NaCl 300 mM.

B1: L-2-hydroxyisocaproate dehydrogenase wild type, P14295 (protein)
chain: MARKIGIIGLGNVGAAVAHGLIAQGVADDYVFIDANEAKVKADQIDFQDAMANLEAHGNIVINDWAALADADVVISTLGNIKLQQDNPTGDRFAELKFTSSMVQSVGTNLKESGFHGVLVVISNPVDVITALFQHVTGFPAHKVIGTGTLLDTARMQRAVGEAFDLDPRSVSGYNLGEHGNSQFVAWSTVRVMGQPIVTLADAGDIDLAAIEEEARKGGFTVLNGKGYTSYGVATSAIRIAKAVMADAHAELVVSNRRDDMGMYLSYPAIIGRDGVLAETTLDLTTDEQEKLLQSRDYIQQRFDEIVDTL
For the protein B1, the Tm is 56.8 °C (pH 6, CD, Potassium phosphate 5 mM); 62.5 °C under setting [1]; 57.2 °C (pH 6, DSC, Potassium phosphate 5 mM); 60.2 °C (pH 7, CD, Potassium phosphate 5 mM); 55.1 °C under setting [2]; 59.6 °C (pH 7, DSC, Potassium phosphate 5 mM). Besides, the midpoint of thermal melting (Tm) runs as follows: (pH 8, CD, Potassium phosphate 5 mM) 56.2 °C; under setting [3], 44.1 °C. The “unfolding enthalpy (calorimetric)” value reads like this: under setting [1], 222 kcal/mol; under setting [2], 203 kcal/mol; under setting [3], 221 kcal/mol. The “unfolding enthalpy (van 't Hoff)” value reads like this: under setting [1], 227 kcal/mol; under setting [2], 202 kcal/mol; under setting [3], 225 kcal/mol.
